From article PMC3197879

Target: YFP-PAX5-Foldon (not stated | phage T4) (UniProt P10104)
Test: SEC

In the case of “YFP-PAX5-Foldon (from UniProt P10104 458-484)”, the stoichiometry N is reported as 3.
